Measurements taken from the supplement of paper PMC7877785.
± gives the uncertainty stated by the source.

Assay: self-splicing fitness, log relative to wild type (ln ratio); higher = more splicing; Tetrahymena group I intron in knt gene, E. coli kanamycin selection, DiMSum; sequences stand for … in CUCUCU…GGAGGGAAAAGUUAUCAGGCAUGCACCUGGUAGCUAGUCUUUAAACCAAUAGAUUGCAUCGGUUUAAAAGGCAAGACCGUCAAAUUGCGGGAAAGGGGUCAACAGCCGUUCAGUACCAAGUCUCAGGGGAAACUUUGAGAUGGCCUUGCAAAGGGUAUGGUAAUAAGCUGACGGACAUGGUCCUAACCACGCAGCCAAGUCCUAAGUCAACAGAUCUUCUGUUGAUAUGGAUGCAGUUCACAGACUAAAUGUCGGUCGGGGAAGAUGUAUUCUUCUCAUAAGAUAUAGUCGGACCUCUCCUUAAUGGGAGCUAGCGGAUGAAGUGAUGCAACACUGGAGCCGCUGGGAACUAAUUUGUAUGCGAAAGUAUAUUGAUUAGUUUUGGAGUACUCGUGGUCG
Method in brief: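 DiMSum derived fitness as the error-weighted combination of fold changes across replicates, kanamycin versus no kanamycin, normalised to wild type. E. coli BL21(DE3) held the library, which randomised all eight P1ex-region intron nucleotides within the knt kanamycin-resistance gene on pET-22b(+). Six replicate transformations grew overnight at 37°C or 30°C on LB agar with or without 25 μg/mL kanamycin, also containing 100 μg/mL carbenicillin, 50 μM IPTG and 0.2% rhamnose, and pooled colonies were amplicon-sequenced on an Illumina HiSeq 2500.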

| Sequence | self-splicing fitness (ln) (30 °C) | self-splicing fitness (ln) (37 °C) |
| --- | --- | --- |
| CGCCAGCAAUAUUACGGGAU | -3.96 ± 0.27 | -2.32 ± 0.28 |
| CGCCAGCAAUAUUACGGGUU | -2.64 ± 0.1 | -2.18 ± 0.12 |
| CGCCAGCAAUAUUACGGUGA | -1.98 ± 0.11 | -1.84 ± 0.11 |
| CGCCAGCAAUAUUACGUAUC | -3.94 ± 0.33 | -3.92 ± 0.42 |
| CGCCAGCAAUAUUACGUCUU | -3.58 ± 0.25 | -1.45 ± 0.2 |
| CGCCAGCAAUAUUACGUGAA | -1.76 ± 0.1 | -1.1 ± 0.14 |
| CGCCAGCAAUAUUACGUUCC | -2.71 ± 0.16 | -1.67 ± 0.37 |
| CGCCAGCAAUAUUACGUUCG | -1.18 ± 0.069 | 0.325 ± 0.086 |
| CGCGAGCAAUAUUACGAAGC | – | -1.75 ± 0.45 |
| CGCGAGCAAUAUUACGACAG | -0.942 ± 0.11 | -0.403 ± 0.16 |
| CGCGAGCAAUAUUACGACCA | -1.71 ± 0.26 | -2.4 ± 0.29 |
| CGCGAGCAAUAUUACGACGA | – | -0.89 ± 0.35 |
| CGCGAGCAAUAUUACGAGAA | – | -2.08 ± 0.34 |
| CGCGAGCAAUAUUACGAGAG | -2.69 ± 0.18 | -2.92 ± 0.31 |
| CGCGAGCAAUAUUACGAUGC | – | -2.16 ± 0.21 |
| CGCGAGCAAUAUUACGAUUA | -3.1 ± 0.3 | -1.99 ± 0.35 |
| CGCGAGCAAUAUUACGCAAC | -2.25 ± 0.31 | – |
| CGCGAGCAAUAUUACGCAGG | -2.68 ± 0.13 | -1.88 ± 0.15 |
| CGCGAGCAAUAUUACGCAUA | -1.87 ± 0.32 | -2.14 ± 0.43 |
| CGCGAGCAAUAUUACGCAUC | -3.36 ± 0.38 | -0.312 ± 0.28 |

| Sequence | self-splicing fitness (ln) (30 °C) | self-splicing fitness (ln) (37 °C) |
| --- | --- | --- |
| CGCGAGCAAUAUUACGCCUU | -2.45 ± 0.43 | – |
| CGCGAGCAAUAUUACGCUGG | -1.39 ± 0.18 | -1.31 ± 0.28 |
| CGCGAGCAAUAUUACGGAAU | -3.2 ± 0.2 | -3.01 ± 0.25 |
| CGCGAGCAAUAUUACGGAUG | -2.25 ± 0.17 | -0.671 ± 0.12 |
| CGCGAGCAAUAUUACGGCCU | -2.69 ± 0.26 | -1.65 ± 0.22 |
| CGCGAGCAAUAUUACGGCGA | -2.29 ± 0.24 | -1.19 ± 0.21 |
| CGCGAGCAAUAUUACGGCGU | -4.64 ± 0.34 | -2.9 ± 0.29 |
| CGCGAGCAAUAUUACGGGCA | -0.464 ± 0.084 | -0.0497 ± 0.11 |
| CGCGAGCAAUAUUACGGGUA | -2.5 ± 0.23 | -2.11 ± 0.24 |
| CGCGAGCAAUAUUACGGUGG | -2.1 ± 0.1 | -1.43 ± 0.13 |
| CGCGAGCAAUAUUACGUAAA | -3.8 ± 0.19 | -2.78 ± 0.15 |
| CGCGAGCAAUAUUACGUCUU | -2.32 ± 0.2 | -2.05 ± 0.24 |
| CGCGAGCAAUAUUACGUGAU | -2.82 ± 0.23 | -3.59 ± 0.37 |
| CGCGAGCAAUAUUACGUGCC | -3.8 ± 0.42 | -2.96 ± 0.48 |
| CGCGAGCAAUAUUACGUGGG | -3.81 ± 0.29 | -2.54 ± 0.21 |
| CGCGAGCAAUAUUACGUUGA | -3.51 ± 0.25 | -2.05 ± 0.2 |
| CGCUAGCAAUAUUACGAACA | -0.88 ± 0.11 | -0.227 ± 0.14 |
| CGCUAGCAAUAUUACGACAG | -0.148 ± 0.059 | 0.297 ± 0.076 |
| CGCUAGCAAUAUUACGACCA | -1.86 ± 0.093 | -1.24 ± 0.12 |
| CGCUAGCAAUAUUACGAUGU | -2.56 ± 0.11 | -1 ± 0.11 |
